{"source": "paper PMC11871066", "about": "(2025)", "binders": {"B1": {"name": "Biotinylated AviTag FAK FAT protein (domain or fragment)", "chain": "MAAAYLDPNLNHTPNSSTKTHLGTGMERSPGAMERVLKVFHYFESNSEPTTWASIIRHGDATDVRGIIQKIVDSHKVKHVACYGFRLSHLRSEEVHWLHVDMGVSSVREKYELAHPPEEWKYELRIRYLPKGFLNQFTEDKPTLNFFYQQVKSDYMLEIADQVDQEIALKLGCLEIRRSYWEMRGNALEKKSNYEVLEKDVGLKRFFPKSLLDSVKAKTLRKLIQQTFRQFANLNREESILKFFEILSPVYRFDKECFKCALGSSWIISVELAIGPEEGISYLTDKGCNPTHLADFTQVQTIQYSNSEDKDRKGMLQLKIAGAPEPLTVTAPSLTIAENMADLIDGYCRLVNGTSQSFIIRPQKEGERALPSIPKLANSEKQGMRTHAVSVSETDDYAEIIDEEDTYTMPSTRDYEIQRERIELGRCIGEGQFGDVHQGIYMSPENPALAVAIKTCKNCTSDSVREKFLQEALTMRQFDHPHIVKLIGVITENPVWIIMELCTLGELRSFLQVRKYSLDLASLILYAYQLSTALAYLESKRFVHRDIAARNVLVSSNDCVKLGDFGLSRYMEDSTYYKASKGKLPIKWMAPESINFRRFTSASDVWMFGVCMWEILMHGVKPFQGVKNNDVIGRIENGERLPMPPNCPPTLYSLMTKCWAYDPSRRPRFTELKAQLSTILEEEKAQQEERMRMESRRQATVSWDSGGSDEAPPKPSRPGYPSPRSSEGFYPSPQHMVQTNHYQVSGYPGSHGITAMAGSIYPGQASLLDQTDSWNHRPQEIAMWQPNVEDSTVLDLRGIGQVLPTHLMEERLIRQQQEMEEDQRWLEKEERFLKPDVRLSRGSIDREDGSLQGPIGNQHIYQPVGKPDPAAPPKKPPRPGAPGHLGSLASLSSPADSYNEGVKLQPQEISPPPTANLDRSNDKVYENVTGLVKAVIEMSSKIQPAPPEEYVPMVKEVGLALRTLLATVDETIPLLPASTHREIEMAQKLLNSDLGELINKMKLAQQYVMTSLQQEYKKQMLTAAHALAVDAKNLLDVIDQARLKMLGQTRPH", "modifications": "biotin (biotinylated AviTag)"}}, "biological_target": "Negative control peptide 2014 (1907 with L145E and L152E) (UniProt P49023 141-153, S143 (i,i + 7 staple position), i,i + 7 all-hydrocarbon staple as in 1907)", "assay": "SPR", "data": [{"binder": "B1", "values": [{"measurement": "Kd", "value": "> 200", "unit": "µM"}]}]}
